Reference: the DeepSol protein solubility set

experiment: soluble on expression in E. coli; label from the status in PepcDB or PDB records

Row | Sequence | soluble on expression in E. coli
1 | MSLPASARWQALQEVSILNTGAELPWGGKFSGVAKLIDDAFDAIEKDNEKLKGVLQRISGYAVNEDTLRGLIILFSDTHFTRPTYNGEPVHLGAKDILGHVYEYFLSRFAQAEGKRSGQYFTPKSIVSLIVEMLEPYSGRVYDPAMGSGGFFVQTERFITAHQGNINNVSIYGQEFNPTTWKLAAMNMAIRGIDYDFGKYNADSFTQPQHIDKKMDFIMANPHFNDKEWWNESLADDPRWAYGTPPKGNANFAWLQHMIYHLSPNGKIALLLANGSMSSQTNNEGEIRKAIINADLVECMVALPGQLFTNTKIPACIWFLNRNKKRKGEVLFIDARQIGYMKDRVLRDFTADDIAKIADTLHAWQTSDGYEDQAAFCKSATLEEIKNNDFVLTPGRYVGTAEQEDDGVPFAEKMQNLTALLKEQFAKSAELEAEIKKNLGGLGYEEGHHHHHH | not soluble
2 | GPGSMFYKIVLQRTVNVKPADLCNTLNRSLLTFLREAVEGKPLPSPDSIASIALDYVTASKSSAVVIAVLDILNAETLQGKVLDDGSVSFRLTYEAMVLKLHRGEVLDLLVSDVDETGFWASVYGVNKLFVNRNQMGEDMKTGKSEWSFEAETAAWVSNDDRRSIKKDTMVRLRVIAETPQSERGMAVGTIGAPFLGPRVGSY | not soluble
3 | MQDLSGFTVPKGFRGANALKVQLWWAVQATLFAGSPQILYRWRAFLLRLFGAKIGKNVVIRPSVKITYPWKLTVGDYAWVGDDAVLYTLGEINIGAHAVISQKGYLCTGSHDYTSAHFDINAAPIVIGEKCWLATDVFVAPGVTIGHGTVVGARSSVFKSLPANAICRGNPAVVTRQRVQKVTP | not soluble
4 | MSLRIVKVRTFHVRPRWLFVAVETDKGVIGWGEAVVEGQARVVERMIGDLAEYLAGRDPRRIEHHWQGMYRGAFYRGGAVLCSAISGIDQALWDITARDLGVPVHALLGGAVRDSVRMYGHARGVTDAEFAHAARRSRSAGMTAIKFGLDGPVRALDTVEYVDRQVARVAAVREAVGPAFDIALDFHGRTSPAMARRLAERLSPMGPLFIEEPCLPENVDALAEIARATNVPIAAGERIFTKWGFRELLERRAVSVVQPDLCHAGGISEVRRIAAMAEAHYVALAPHNPLGPVSLAACLQVAASTPNFLIQEYLALDDGADLGAGILAVPFSVENGHIAVPTGPGLGIEVDEAQLMDRVYAGDWTTPRFTHQDGSHGDWEGHHHHHH | not soluble
5 | MFHCKGLYMSDQNDKLKNLKTSSMDRRLSIAKASLLAGTRWATASATSMFSSEAEKEKKRKKAMTEQANYLVSEIGKLKGSIVKIGQMMALYGEHFLPEEITQALNTLNNQTVALAWPAIKAHLQEQLGSKLDDLIIDHEPIGTASLAQVHRATRKSDGLELVLKIQYPGVAEAIDSDMSLFKNMLKLTRMVPQTREFDQWFDEVREMMHREVSYDIEAATTRRFAERLKTDPRYAVPQIIDAYCTTKILCMTFERGVPINSPVMLSLPQERRNKLGEASLEIAVREIFEWGEMQTDPNFGNYLVRLGNGTDIQDKIVLLDFGAIRQFDEHLLSVARNLIRAGYNHSNEEMVRAMTGYSFFDSIPESIKPDMAKVFLLATEAFSCPENNPDMPTGLMDEDNRYDWKKSQLHSRVMQQASKSMASRYFSVPPKEFMFISRKFIGAYTFMTVIEAKTNVRRMISHFVK | soluble
6 | MEYSYIPSAALYNNADIFQFFPRNKRLNSHQKSRLDEHARKMAAFMMERQEEYRYYENLANQEQFSDDNGMESGFCSGATSTGQSASTSPAPVQLIPNPFFDPEYVAAKTQSPVKLVTNPFFNPELVEEIKKKSQKRNEKSAPVSA | not soluble
7 | MSLLRETLESGKFAVTTEMAPPKGTDLSHLIECAKPLVGRVHAANVTDFQSAVMRATSLATCKLLKDAGLEPVIQITGRDRNRIAIQGEMLSAGVFGINNLLALTGDHTSVGDHPQAKGVFDLDSVGILQTAETLMAGTDMAGNKLKGSPDFYLGASVTPEYSPIEVQLLKMKKKIKAGAKFFQTQALYDINTMRKFRELTRDMDCKVLAGIVPLKSPGMAKFMTANVPGIFVPDEQIERLRAAGKENWVSEGIKMAGELIKQLKEEDLCDGVHIMAIGAEENIPAILDAAGL | not soluble
8 | MCLNFREDNVMKKIMVIFGTRPEAIKMAPLVKEIDHNGNFEANIVITAQHRDMLDSVLSIFDIQADHDLNIMQDQQTLAGLTANALAKLDSIINEEQPDMILVHGDTTTTFVGSLAAFYHQIPVGHVEAGLRTHQKYSPFPEELNRVMVSNIAELNFAPTVIAAKNLLFENKDKERIFITGNTVIDALSTTVQNDFVSTIINKHKGKKVVLLTAHRRENIGEPMHQIFKAVRDLADEYKDVVFIYPMHRNPKVRAIAEKYLSGRNRIELIEPLDAIEFHNFTNQSYLVLTDSGGIQEEAPTFGKPVLVLRNHTERPEGVEAGTSRVIGTDYDNIVRNVKQLIEDDEAYQRMSQANNPYGDGQASRRICEAIEYYFGLRTDKPDEFVPLRHK | not soluble
9 | MSLGKYFGTDGVRGEANVELTPELAFKLGRFGGYVLSQHETERPKVFVARDTRISGEMLESALIAGLLSVGIEVYKLGVLATPGVSYLVRTEKASAGVMISASHNPALDNGIKFFGNDGFKLADDQELEIEALLDAPEDTLPRPSAEGLGTLVDYPEGLRKYEKFLVTTGTDLSGMTVALDTANGAASVSARDVFLDLNAEIAVIGEKPNGLNINDGVGSTRPEQLQELVKETGADLGLAFDGDSDRLIAVDETGEIVDGDRIMFIIGKYLSEKGLLAHNTIVTTVMSNLGFHKALDKQGINKAITAVGDRYVVEEMRSSGYNLGGEQSGHVIIMDYNTTGDGQLTAIQLAKVMKETGKSLSELAAEVTIYPQKLVNIRVENSMKERAMEVPAIANIIAKMEDEMAGNGRILVRPSGTEPLLRVMAEAPTDAEVDYYVDTIADVVRTEIGCDNEGHHHHHH | soluble
10 | MGSDKIHHHHHHMEQTGYGEHIAHTVRNVPYETAIQTEDIAGELAKKFALPYNHAKTITNVKLKRMADKGEIERLQKGIYCHVKQTFFGKVTPTADQVLLKTLMVQNGAKIGYESGASLLNKLGLTTLIPRDIEITTNRYGAKLPEGCHIKLRKPPMPVTDENWKYLQFIDVLMYLPDAHTDAEKPEVLLRQHAKEQQLDYLTLIFTARKYYPQKIVLPLIDLLMEVENETASR | not soluble
11 | MSLLRIRQPKSETVRQFLQTQASRDFSYPMVGATLATPPSEYQVDHTRVRLGHGEESLAQGRIALQKWTQFQLGWVTTFPPALPIQAGEMVAIVARAGGFWWLNACRIVCTIEEPKQFGFAYGTLPAHAESGEERFLIEMDDAGDVWYDILAFSRPNRVSAKLAYPYMRHLQKRFARESAAAMRQAIRPEGHHHHHH | soluble
12 | MSLGMKSNEYNKGNYEAHKAYYAGTYEYGTDYDVEDDLYSLEFDDELLNDELEYLEDIGEPFYYEDLDNDFDNTLENQVEKDTYAALENKLRKYISKYNCYFGIYFVDLESGKEFGINDTEEFFAASTFKIPLNLYVYDMIRKGMLDPMTSLEYTEEDFEGGTGIIWNNESFGKTFTIKELLRLSIVYSDNVAVNMLLRCVGKANVKEYMRRLGGVVVDDGKNVSCPRDMAMYLKEVYELSENGDPWGRELVQNMINTKFYDRLPVLLPKNLKIAHKTGNYTGVVHDVGIVYAEKPYIVVVMTKNVKNGQSANKAIANISKMIYDYVVKQSGKDEGHHHHHH | soluble
13 | MRAIRVHEVGGPEVLRLEELPVPEPGPGEVLVRLLAIGVNFIDTYKRKGLYPVPAPFTLGEEGAGVVEKVGEGVVGVRPGDRVAFANVQGAYAEYLVVPAERLVPVPEGLDPKLAAAALLQGMTVHYLLKSTYPVAPGDQVLVHAGAGGVGQLLIQWAKRLGATVYATASTEEKRGLCLQAGADYALPYEGFAEAVKALSGGGVDVVYDGVGKDTFLGSLAALRPRGMLVLFGQSSGPVPPQDPQILNRMGSLFLTRPTLHHYTASRKELLFRPGEVFRGVLKGWLKVRIGAEFPLENARKGPRGPRGPKDHGQGPPPALGRGNRAHFSGSGVVYYGPFQGLM | soluble
14 | MTVQIENEFLIATFAEEGAELVSLQSKETGIEYIWQGNPEFWARHAPVLFPIVGRLKEDTYMYQNQAYHLTQHGFARDQVFDVIEKGGEEVSFSLKSTKETKKKYPFDFELVITYTLEHQELTVNYQVEYTGKEEMYFGIGGHPAFNVPLESSLTFEDYYLSFSPKKSRTQIPLAGPFIDLANKTLAQTNTSFDLTHQLFENDAMIFETKGQTAITIATDESDHQVTLSYPEMPFVGIWSPTPKEAPFVCIEPWCGIADAVDATGQLAEKFGINKLPANELFKTQYMISVKLEHHHHHH | not soluble
15 | MNSFKTRDVQVAVEAVEKEKIEFIPLRRTLRYLIVGIDPGATTAIAALDLRGELVDMKSRKGWSPAEVIEFISSLGKPVVVSTDKSSPPEFVSKIRASFNAVLYTPKEDMSVEKKRILTSKYSTSNDLEHHHHHH | not soluble
16 | MKFRRSGRLVDLTNYLLTHPHELIPLTFFSERYESAKSSISEDLTIIKQTFEQQGIGTLLTVPGAAGGVKYIPKMKQAEAEEFVQTLGQSLANPERILPGGYVYLTDILGKPSVLSKVGKLFASVFAEREIDVVMTVATKGIPLAYAAASYLNVPVVIVRKDNKVTEGSTVSINYVSGSSNRIQTMSLAKRSMKTGSNVLIIDDFMKAGGTINGMINLLDEFNANVAGIGVLVEAEGVDERLVDEYMSLLTLSTINMKEKSIEIQNGNFLRFFKDNLLKNGETESHHHHHH | soluble
17 | TPIPHKITSFAEQMRGLRSESKVLELVVIPADHSIAELLKMKENEPVNKLVRVRYAEGEPLQYHTSYIPWKAAPGLAQEECTGSLFELLRTKYNIEISRGTESIEPILTDETISGHLLTNVGAPAFLSESLTYDKNEEVVEYAQIITRGDRTKFTVEQSYHS | not soluble
18 | MKRILLSLLAMATLVGCGSKDDNNPTPPQRPDFTKEQQNYLPTKKVKHVTATYVEADYENGSYPSVQYKDFLNPELNQGQKFTVKTMEYFYEYDNAGRITKVTFKREGDSDIVSTLTYSNISVTITSPPPYDGIREPRSIEYGLNSSGNILSLGVYNEKQQLKNSMSAGTFTWENDNLTKISRKVTRNGVVKERGVKFSYNSATNKNKFYLLDHTGDDIRSYQEYFALSIAIIKGAAPKNLPIEATPLEENDSYSSRFERPVSFSYTFDGDEFVKTITEKENKFVPGSLYSYVPNNGNNEIGTYWNELQTLIANIENKTVTNKSYKLISDDGSTRIFEITVPVKVEKDSNGKTINLNVNKVCKFTVSYNNTSATDIRMEATYYADIITNYELNY | not soluble
19 | MAHHHHHHMPIKNVQEFLPNVRPDAFPVVVAVQAQASIPVGINLAELSCATRNVEYMPNNRIPSATMRLHEPTAVVMMHNSGALSIIGAASVSEARQAAELAARIIRKALNLNFSSLKFRVRSIAARFNVCSPIRLDKLAAYQLDPAMSIGVAKLQVSYEPERFNGCVLRLVGKSSRGDNQWSVSCSVFVTGKVQLMGARSMDELRFAFNAFVPIIAKNLDERKTA | not soluble
20 | SDSAFANLDAAGFLQIWQHFDADDNGYIEGKELDDFFRHMLKKLQPKDKITDERVQQIKKSFMSAYDATFDGRLQIEELANMILPQEENFLLIFRREAPLDNSVEFMKIWRKYDADSSGYISAAELKNFLKDLFLQHKKKIPPNKLDEYTDAMMKIFDKNKDGRLDLNDLARILALQENFLLQFKMDASSQVERKRDFEKIFAHYDVSRTGALEGPEVDGFVKDMMELVRPSISGGDLDKFRECLLTHCDMNKDGKIQKSELALCLGLKHKP | soluble
21 | MSVSRYPVAIAGAGPAGSALALALQAQGVEALLLDRPLAQPFRIGESATPDVAGLLERLGAGHALDGQPGYHGNLSLWGSESPRLDHFLYRGRGHGWHLDRAGFDHALRQEAMARGVAVLGESGVDAIAPAAGGWRLRVRGLGEVEARVVVDAGGRRSPLAARLGISRCRLDRLQALACRVDGPGQLSGYSLVESAPYGWWYAAALPDGRALATLMTDQDLARELGLEHPANFLAAWRATRLLSERLPPPQRIDAAHAFAAHSGCVARAAGPGWICVGDALMGLDPLTSSGIACALGDALAAAPAIVAMLDGELAPARAYAKRADDCFRRYLAERRRHYRQENRWPEQPFWQRRAFSPAALAVPALEHHHHHH | not soluble
